Target: FKBP-caspase-8 (Site-1 mutant) (human) (UniProt Q14790)

activity after heterodimerization (with AP21967), relative to Mature caspase-8: 20%
Substance: FRB-FLIPL (wt) (from UniProt O15519 188-480)

From article PMC4024219
